Patent publication US20220143153A1, “COMPOSITIONS AND METHODS FOR TREATING ACNE” (priority 2019, published 2022)

Tested on: PBMCs
Assay: Cytokine secretion from PBMCs stimulated with nuclease-treated live C. acnes (ELISA)
Format: cell-based, human
Settings: live C. acnes digested with nuclease at 37° C. for 1 hour, PBMCs stimulated 24 h
Procedure: FIGS. 3A-3D: PBMCs were stimulated with untreated, heat-killed (HK), Rnase I, or Dnase I treated live CA(HL5PA1), CH (HL110PA4), LPS, or 19 kD (TLR1/2L) for 24 h. Cytokine secretions were measured by ELISA.
Cells purification and culture. Whole blood was obtained from healthy donors who provided written informed consent (UCLA Institutional Review Board). PBMCs were isolated by Ficoll-Paque (Amersham Bioscience) density gradient centrifugation and cultured in RPMI 1640 (Gibco) supplemented with 10% fetal bovine serum (FBS) (Seradigm) at a density of 2.5×10^6/mL in a 24-well flat bottomed plate.
Bacterial treatment. Live bacteria were heat-killed at 95° C. for 10 minutes and cooled on ice before addition of bacteria to cell culture. Live bacteria were digested using RNase I (Promega) or DNase I (Invitrogen) and incubated at 37° C. for 1 hour. Nucleases were inactivated with 0.1% SDS.
Cytokine Quantification. Cell culture supernatants were harvested at 24 hours unless otherwise noted. Cytokines measured by sandwich ELISA using antibody pairs were as follows: IL-18, IL-1β, IFN-β (R&D Duoset), IFN-γ (BD), IL-6, IL-10, TNF-α (Invitrogen).

B1: RNase I: RNase I (Promega), enzyme that catalyzes the hydrolysis of RNA; used to digest live bacteria (protein, UniProt P21338 24-268, looked up)
Ribonuclease I: LALQAKQYGDFDRYVLALSWQTGFCQSQHDRNRNERDECRLQTETTNKADFLTVHGLWPGLPKSVAARGVDERRWMRFGCATRPIPNLPEARASRMCSSPETGLSLETAAKLSEVMPGAGGRSCLERYEYAKHGACFGFDPDAYFGTMVRLNQEIKESEAGKFLADNYGKTVSRRDFDAAFAKSWGKENVKAVKLTCQGNPAYLTEIQISIKADAINAPLSANSFLPQPHPGNCGKTFVIDKAGY
IFN-γ secretion from PBMCs: eliminated | IL-6 secretion from PBMCs: eliminated | IL-10 secretion from PBMCs: eliminated | TNF-α secretion from PBMCs: eliminated | IFN-γ secretion from PBMCs (listed as RNase): abrogated
